Measured values published in paper PMC10042821, “Cryo-EM structure of human eIF5A-DHS complex reveals the molecular basis of hypusination-associated neurodegenerative disorders” (Nature Communications, 2023).

How the values were obtained:
[1] = biological target: the molecule itself; experiment: mass photometry; Refeyn OneMP, final concentration ~1-5 nM; oligomeric state of DHS variants
[2] = biological target: the molecule itself; experiment: cryo-EM structure; complex reconstituted from purified eIF5A-1 and DHS K329A (2 mole eIF5A per 1 mole DHS), 200 mM glycine/NaOH pH 9.3, 200 mM NaCl, 1 mM NAD, 1 mM SPD, purified by SEC; 2.8 A

Protein | stoichiometry N [1] | stoichiometry N [2]
deoxyhypusine synthase delY305_I306, patient-derived variant, tag-free (enzyme, human, UniProt P49366 1-369, looked up, deoxyhypusine synthase (DHS), Homo sapiens, UniProt P49366, residues 1-369, pathological variant lacking Y305 and I306; Tag removal follows the general purification procedure; also called DHS^delY305_I306; DHS^del305Y_306I; source: E. coli, purified from the soluble fraction (HisTrap, TEV cleavage, reverse HisTrap, SEC); not shown: His6, N-terminal, cleaved) MEGSLEREAPAGALAAVLKHSSTLPPESTQVRGYDFNRGVNYRALLEAFGTTGFQATNFGRAVQQVNAMIEKKLEPLSQDEDQHADLTQSRRPLTSCTIFLGYTSNLISSGIRETIRYLVQHNMVDVLVTTAGGVEEDLIKCLAPTYLGEFSLRGKELRENGINRIGNLLVPNENYCKFEDWLMPILDQMVMEQNTEGVKWTPSKMIARLGKEINNPESVYYWAQKNHIPVFSPALTDGSLGDMIFFHSYKNPGLVLDIVEDLRLINTQAIFAKCTGMIILGGGVVKHHIANANLMRNGADYAVNTAQEFDGSDSGARPDEAVSWGKIRVDAQPVKVYADASLVFPLLVAETFAQKMDAFMHEKNED | 2 | –
deoxyhypusine synthase K329A, catalytically dead variant, tag-free (enzyme, human, UniProt P49366 1-369, looked up, deoxyhypusine synthase (DHS), Homo sapiens, UniProt P49366, residues 1-369; Tag removal follows the general purification procedure; used for cryo-EM, HDX-MS and crystallography; also called DHS^K329A; source: E. coli, purified (HisTrap, TEV cleavage, reverse HisTrap, SEC); not shown: His6, N-terminal, cleaved) MEGSLEREAPAGALAAVLKHSSTLPPESTQVRGYDFNRGVNYRALLEAFGTTGFQATNFGRAVQQVNAMIEKKLEPLSQDEDQHADLTQSRRPLTSCTIFLGYTSNLISSGIRETIRYLVQHNMVDVLVTTAGGVEEDLIKCLAPTYLGEFSLRGKELRENGINRIGNLLVPNENYCKFEDWLMPILDQMVMEQNTEGVKWTPSKMIARLGKEINNPESVYYWAQKNHIPVFSPALTDGSLGDMIFFHSYKNPGLVLDIVEDLRLINTQAIFAKCTGMIILGGGVVKHHIANANLMRNGADYAVYINTAQEFDGSDSGARPDEAVSWGAIRVDAQPVKVYADASLVFPLLVAETFAQKMDAFMHEKNED | – | 4
deoxyhypusine synthase N173S, patient-derived variant, tag-free (enzyme, human, UniProt P49366 1-369, looked up, deoxyhypusine synthase (DHS), Homo sapiens, UniProt P49366, residues 1-369, pathological variant N173S; Tag removal follows the general purification procedure; also called DHS^N173S; source: E. coli, purified from the soluble fraction (HisTrap, TEV cleavage, reverse HisTrap, SEC); not shown: His6, N-terminal, cleaved) MEGSLEREAPAGALAAVLKHSSTLPPESTQVRGYDFNRGVNYRALLEAFGTTGFQATNFGRAVQQVNAMIEKKLEPLSQDEDQHADLTQSRRPLTSCTIFLGYTSNLISSGIRETIRYLVQHNMVDVLVTTAGGVEEDLIKCLAPTYLGEFSLRGKELRENGINRIGNLLVPSENYCKFEDWLMPILDQMVMEQNTEGVKWTPSKMIARLGKEINNPESVYYWAQKNHIPVFSPALTDGSLGDMIFFHSYKNPGLVLDIVEDLRLINTQAIFAKCTGMIILGGGVVKHHIANANLMRNGADYAVYINTAQEFDGSDSGARPDEAVSWGKIRVDAQPVKVYADASLVFPLLVAETFAQKMDAFMHEKNED | 4 | –
